The target of test [1] is T1, streptavidin (UniProt P22629 37-163, limits assumed).
T1 construct: The same protein was used free (EMSA, Biacore, SBIA) and immobilized on a matrix or plate; also called immobilized streptavidin; Ultralink immobilized streptavidin plus
Nature of the test: streptavidin column-binding assay, 35S DNA-tagged peptide on immobilized streptavidin, biotin elution. The protocol:
(§1) The resulting purified DNA-tagged peptides (DTP) were analyzed in a streptavidin column-binding assay, in which ~500 pM ^35S-labeled DTP were mixed with 50 µL of the streptavidin matrix in streptavidin-binding buffer, in a total volume of 300 µL, and incubated for 10 minutes at room temperature with agitation. Then, the contents were loaded onto a chromatography column. The column was drained and washed with 80 column volumes of streptavidin-binding buffer, and then eluted with three consecutive aliquots (3 column volumes each) of streptavidin-binding buffer plus 2 mM biotin over a 15 minute period. All fractions (flow-through, washes, elutions, and irreversibly bound counts) were analyzed by scintillation counting to determine the fraction of DTP that bound streptavidin and eluted with biotin (Table 1).

For test [2], the target named is T1, streptavidin. Briefly: streptavidin column-binding assay: 35S-labeled DNA-tagged peptide bound to immobilized streptavidin and eluted with biotin. On the procedure: as §1
Test [3] deals with T1, streptavidin. Briefly: EMSA, DNA-tagged peptide with free streptavidin; SD 0.91, n=8. On the procedure:
(§2) The dissociation constants of the selected peptides for streptavidin were measuring using an electrophoretic mobility shift assay (EMSA). In this assay, DTP's were incubated with varying amounts of pure streptavidin (Pierce Immunopure Streptavidin, Rockford, Ill.) in streptavidin-binding buffer plus 5% glycerol to increase the density of the solution so that it could collect at the bottom of the gel well. After incubating at room temperature for 20 minutes, the reactions mixtures were moved into the cold room, where they remained for 10 minutes before being carefully loaded onto a 10% polyacrylamide:bisacrylamide (37.5:1, National Diagnostics, Atlanta, Ga.) gel (thickness 0.7 mm, height 16 cm, width 18 cm) containing 2×TBE, 0.1% Triton X-100 and 5% glycerol. The gel, which had been pre-run for 30 minutes at 13 watts, and the running buffer were pre-cooled to 4° C. Then, the gel was run in the cold room at 13 watts, which increased the temperature of the gel to about 20° C. The gel was run for 45 to 120 minutes, depending on the mobility of the particular DTP. Then, the gel was fixed in 10% acetic acid and 10% methanol for 15 minutes, transferred to electrophoresis paper (Ahlstrom, Mt. Holly Springs, Pa.), dried, and analyzed using a PhosphorImager (Molecular Dynamics, Sunnyvale, Calif.).

Test [4] concerns the target T1, streptavidin. Briefly: streptavidin column-binding assay, M1 (HPQ to HGA) compared to C4. On the procedure: as §1
For test [5], the target named is T1, streptavidin. Nature of the test: EMSA, DNA-tagged peptide with free streptavidin; SD 22, n=6. On the procedure: as §2
Background: Mobility shift assays separate free from complexed probe on a gel.

Test [6] has as its target T1, streptavidin. Briefly: EMSA, DNA-tagged peptide with free streptavidin; SD 5.7, n=4. On the procedure:
as §2

Where no end group is shown, it is not given here. The star is where a group is joined. puromycin = COc1ccc(C[C@H](N*)C(=O)N[C@H]2[C@@H](O)[C@H](n3cnc4c(N(C)C)ncnc43)O[C@@H]2CO)cc1; DNA oligonucleotide = not defined here

T1 sequence (P22629 37-163 limits assumed): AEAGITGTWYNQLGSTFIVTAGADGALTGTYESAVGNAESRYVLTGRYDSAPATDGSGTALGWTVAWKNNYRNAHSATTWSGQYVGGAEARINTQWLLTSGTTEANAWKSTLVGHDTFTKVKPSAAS

B1: SB3 (peptide)
peptide: MTRRPTASSSSCVRHLLLRQGEHGHQALEDRDKARHVRLVEGDVEVLGGLDRLARARHEALHPQAGLVHLPLHGGDLGGHLRLVLEAHPQGDRLGLAVHHH
modifications: C-terminus joined through puromycin to a short DNA oligonucleotide (DNA-tagged peptide); 35S-methionine label
notes: also called peptide SB3
As for B1, the “% binding and eluting” value with streptavidin [1] amounted to 20%.

B2: SB19 C-terminal truncation construct C1 (peptide)
peptide: MDEKTTGWRGGHVVEGLAGELEQLRARLEHHPQGQREPLVQEVEDVDEGLVQDLHGVVAGLLDPVEKLLTDWFKKFKNVSMMSGGCKLG
modifications: C-terminus joined through puromycin to a short DNA oligonucleotide (DNA-tagged peptide); 35S-methionine label
As for B2, the “% binding” value with streptavidin [2] amounted to 87%.

B3: SB7 (peptide)
peptide: MDEKTHWFGTLNSFPTHWMSAVGNGKIDCSFNMNLSLNHWLSSGHPDGALDDQLHPQGDALVGRDDGVVQALRLEGQHQHRRLAQRRADRHRQLVWRLPPS
modifications: C-terminus joined through puromycin to a short DNA oligonucleotide (DNA-tagged peptide); 35S-methionine label
notes: also called peptide SB7
Turning to B3, the “% binding and eluting” value in the test with streptavidin [1] was found to be 28%.

B4: N1 (peptide)
peptide: MDGHVVEGLAGELEQLRARLEHHPQGQREPMMSGGCKLG
notes: One member of the group m27; Assayed as a DNA-tagged peptide
As for B4, in the test with streptavidin [2], the “% binding” value was 69%.

B5: SB4 (peptide)
peptide: MDEKTHWGISTWRGEPLLHHPQAGRLPLDRRRARHRRILGAEPGGVDHGLRLELLDDHRPLVPDHHPQRGPLQRGDLPQVVPLVRLRHAHVLGLGLAAATIT
modifications: C-terminus joined through puromycin to a short DNA oligonucleotide (DNA-tagged peptide); 35S-methionine label
notes: also called peptide SB4
Turning to B5, the “% binding and eluting” value with streptavidin [1] stood at 49%.

B6: SB8 (peptide)
peptide: MDEKTHCTIELNFSFTHWKLHHHPQGDALLDDGVRPHHPLADEGGGLDQGLGHRRGVVAERLARRDPEVLEGLVERHRGLVPRLRHGGERHAEPLVWRLPPS
modifications: C-terminus joined through puromycin to a short DNA oligonucleotide (DNA-tagged peptide); 35S-methionine label
notes: also called peptide SB8
In the case of B6, in the test with streptavidin [1], the “% binding and eluting” value was determined as 27%.

B7: SB19 C-terminal truncation construct C2 (peptide)
peptide: MDEKTTGWRGGHVVEGLAGELEQLRARLEHHPQGQREPLVQEVEDVDEGLVQDLHGVVAGLLDPVEMMSGGCKLG
modifications: C-terminus joined through puromycin to a short DNA oligonucleotide (DNA-tagged peptide); 35S-methionine label
On to B7, for which the “% binding” value with streptavidin [2] came to 88%.

B8: SB2 (peptide)
peptide: MDEKTHCFHPGDHLVRLVEELQALAEGLQRQGGRQPHRLPRRRPHHLQLLLDEAHPQAGPLRERAHQVDGRLLLQHHPQGDRLLQQPQDHPLELVWRLPPS
modifications: C-terminus joined through puromycin to a short DNA oligonucleotide (DNA-tagged peptide); 35S-methionine label
notes: also called peptide SB2; clone SB2
Usually Kd stands for the equilibrium constant for the complex coming apart. A high value points to lower affinity. The molecule B8 showed an equilibrium dissociation constant (Kd) with streptavidin [3] of 4.8 nM. The “% binding and eluting” value with streptavidin [1] was 48%. Regarding MDEKTTGWRGGHVVEGLAGELEQLRARLEHHGAGQREPMMSGGCKLG-{puromycin-DNA oligonucleotide} (reading uncertain; also: 35S-methionine label, also called construct M1) [SB19 point mutated peptide M1], in the test with streptavidin [4], the “fold reduction of activity against construct C4” value is roughly 1000 fold. Moreover, in the test with streptavidin [2], the “% binding” value turned out to be 0.065%.

B9: SB5 (peptide)
peptide: MDEKTHWVNVYHPQGDLLVRGHGHDVEALHDQGLHQLDLLVGPPPEVVRALRGEVLGGLRRLVPLDHPQGEALDQARQRPQHLLELHHRALPPALVWRLPPS
modifications: C-terminus joined through puromycin to a short DNA oligonucleotide (DNA-tagged peptide); 35S-methionine label
notes: also called peptide SB5
B9 returned a Kd with streptavidin [5] of 110 nM. In the test with streptavidin [1], the “% binding and eluting” value amounted to 72%.

B10: Non-selected peptide with two HPQ motifs spaced by 19 residues (peptide)
peptide: MDEAHPQAGPVDQADARLVQQGALQHHPQGDRMMSGGCKLGTGY-{puromycin-DNA oligonucleotide}
modifications: reading uncertain; also: C-terminus joined through puromycin to a short DNA oligonucleotide (DNA-tagged peptide), 35S-methionine label
notes: also called non-selected clone; control peptide
In the case of B10, the “% binding and eluting” value in the test with streptavidin [1] came to 0.16%.

B11: SB19 C-terminal truncation construct C3 (peptide)
peptide: MDEKTTGWRGGHVVEGLAGELEQLRARLEHHPQGQREPLVQEVEDVDEGLVQMMSGGCKLG-{puromycin-DNA oligonucleotide}
modifications: reading uncertain; also: 35S-methionine label
Regarding B11, the “% binding” value in the test with streptavidin [2] was determined as 89%.

B12: N2 (peptide)
peptide: MDEGLAGELEQLRARLEHHPQGQREPLVQEVEDVDEGLVQDLHGVVAGLLDPVEKLLTDWFKKFKNVSKDCKMTFYLEMYDWSGGCKLG
notes: as for B4
Take B12: the “% binding” value with streptavidin [2] worked out at 30%.

B13: SB1 (peptide)
peptide: MDEKTHCTISMNGAVPLVPHHHPQGDPLRLLHRPQPALLVRHPQGDLVALVEHHEGVDRGLVALPELHAEELGEPVGDLVQGPVEQVQGVVDALVWRLPPS
modifications: C-terminus joined through puromycin to a short DNA oligonucleotide (DNA-tagged peptide); 35S-methionine label
notes: also called peptide SB1; clone SB1
B13: in the test with streptavidin [6], the affinity, expressed as Kd, was 50 nM. The “% binding and eluting” value with streptavidin [1] turned out to be 86%.

B14: SB6 (peptide)
peptide: MDEKTHWLNNFEELLARLDGLREGEDHPLVLRHHPQGDGLLDQPLGRHRALDGEVREGDRPLDQGGEEDLGALVDDDGEVLDGLVHVGVHVHDPLVCGCHHH
modifications: C-terminus joined through puromycin to a short DNA oligonucleotide (DNA-tagged peptide); 35S-methionine label
notes: also called peptide SB6
Regarding B14, the “% binding and eluting” value with streptavidin [1] came out at 49%.

These data come from patent US6841359 (GENERAL HOSPITAL, dated 2005).
